In patent US20260070940A1 (Hoffmann-La Roche, published 2026):

T1: MCSP antigen, amino acids 1553 to 2184 of matured MCSP with C-terminal avi-tag and His-tag, biotinylated (Homo sapiens (Human), UniProt Q6UVK1 1582-2213, limits assumed, biotin on the avi-tag)
T1 construct: also called recombinant MCSP
T1 sequence: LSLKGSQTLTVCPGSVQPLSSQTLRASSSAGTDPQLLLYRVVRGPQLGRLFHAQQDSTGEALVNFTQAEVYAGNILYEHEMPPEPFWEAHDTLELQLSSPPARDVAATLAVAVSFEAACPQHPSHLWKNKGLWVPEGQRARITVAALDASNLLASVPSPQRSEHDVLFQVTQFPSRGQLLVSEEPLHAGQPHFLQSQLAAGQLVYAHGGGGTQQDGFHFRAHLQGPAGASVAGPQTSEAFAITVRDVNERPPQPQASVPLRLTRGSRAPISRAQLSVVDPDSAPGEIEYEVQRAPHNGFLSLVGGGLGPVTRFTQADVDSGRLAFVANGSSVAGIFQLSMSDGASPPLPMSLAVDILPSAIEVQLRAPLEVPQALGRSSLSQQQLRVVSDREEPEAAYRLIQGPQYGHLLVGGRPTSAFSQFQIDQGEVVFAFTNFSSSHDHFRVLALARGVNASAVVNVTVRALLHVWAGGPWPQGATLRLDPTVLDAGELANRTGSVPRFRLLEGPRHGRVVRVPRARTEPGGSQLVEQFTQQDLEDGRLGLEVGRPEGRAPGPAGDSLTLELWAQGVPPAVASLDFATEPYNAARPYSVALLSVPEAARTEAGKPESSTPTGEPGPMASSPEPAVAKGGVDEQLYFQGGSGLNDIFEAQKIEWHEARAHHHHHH

T2: hu(NA1)BA-avi-His, biotinylated (human, biotin on the avi-tag)
T2 construct: CEACAM5 domains N and A1 followed by two CEACAM1 Ig domains, avi-tag and his-tag; also called CEA antigen; chimera of CEACAM5 domains N and A1 on CEACAM1
T2 chain: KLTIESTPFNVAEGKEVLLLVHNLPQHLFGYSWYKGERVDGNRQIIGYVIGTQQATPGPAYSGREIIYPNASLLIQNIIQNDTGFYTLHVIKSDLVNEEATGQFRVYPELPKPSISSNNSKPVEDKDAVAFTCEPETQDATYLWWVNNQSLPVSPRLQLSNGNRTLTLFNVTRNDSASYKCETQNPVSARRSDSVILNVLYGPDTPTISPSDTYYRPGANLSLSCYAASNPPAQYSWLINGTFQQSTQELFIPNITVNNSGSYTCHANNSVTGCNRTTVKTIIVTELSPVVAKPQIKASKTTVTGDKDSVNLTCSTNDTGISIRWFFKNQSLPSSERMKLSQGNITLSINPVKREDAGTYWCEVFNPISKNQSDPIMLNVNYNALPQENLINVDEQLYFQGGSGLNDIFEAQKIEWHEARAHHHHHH

T3: full-length human CEA with N-terminal SNAP tag on transfected HEK293 cells (human, UniProt P06731 35-685, SNAP tag labelled with terbium)
T3 construct: whole, on cells; also called hu CEA-SNAP; CEACAM5
T3 sequence (looked up): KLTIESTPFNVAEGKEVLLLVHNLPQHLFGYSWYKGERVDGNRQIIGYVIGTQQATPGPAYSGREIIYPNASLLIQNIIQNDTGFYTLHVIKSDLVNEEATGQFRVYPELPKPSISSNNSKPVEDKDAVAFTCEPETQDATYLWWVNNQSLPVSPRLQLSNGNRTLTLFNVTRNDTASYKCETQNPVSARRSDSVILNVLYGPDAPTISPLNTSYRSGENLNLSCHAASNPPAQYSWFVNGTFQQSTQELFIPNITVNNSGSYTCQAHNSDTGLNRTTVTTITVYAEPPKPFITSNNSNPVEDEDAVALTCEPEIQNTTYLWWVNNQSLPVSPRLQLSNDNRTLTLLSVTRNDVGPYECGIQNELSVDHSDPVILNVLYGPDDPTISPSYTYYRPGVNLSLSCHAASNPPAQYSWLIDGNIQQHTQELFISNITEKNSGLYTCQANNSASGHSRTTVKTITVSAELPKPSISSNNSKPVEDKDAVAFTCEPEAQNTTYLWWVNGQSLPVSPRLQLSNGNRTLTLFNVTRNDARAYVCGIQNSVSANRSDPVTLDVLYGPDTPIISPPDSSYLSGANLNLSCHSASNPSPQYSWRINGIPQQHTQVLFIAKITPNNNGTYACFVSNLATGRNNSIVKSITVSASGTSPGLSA


Columns and labels:
[1] = biological target: T4, soluble human Lag3-IgG1-Fc with biotinylated C-terminal Avi-tag (human, biotin on the Avi-tag); test: SPR, LAG3-Fc immobilised
T4 construct: Lag3 ECD, IEGRMD linker, IgG1 Fc, Avi-tag; also called LAG3-Fc-avi; biotinylated LAG3-Fc

[2] = biological target: T1, MCSP antigen, amino acids 1553 to 2184 …; test: SPR, MCSP immobilised
[3] = biological target: T2, hu(NA1)BA-avi-His, biotinylated; test: SPR, purified aVH
Method: CEACAM1-avi-his was again used as a negative control Immobilization of recombinant antigens (ligand): Antigen was diluted with PBST (10 mM phosphate, 150 mM sodium chloride pH 7.4, 0.005% Tween 20) to 10 μg/ml, then injected at 30 μl/minute at varying contact times, to achieve immobilization levels of 200, 400 or 800 response units (RU) in vertical orientation. […] Buffer (PBST) was injected along the sixth channel to provide an “in-line” blank for referencing. Association rate constants (kₒₙ) and dissociation rate constants (koff) were calculated using a simple one-to-one Langmuir binding model in ProteOn Manager v3.1 software by simultaneously fitting the association and dissociation sensorgrams. The equilibrium dissociation constant (KD) was calculated as the ratio koff/kₒₙ.

[4] = biological target: T2, hu(NA1)BA-avi-His, biotinylated; test: SPR, bacterial supernatant
Method: The off-rate of selected aVH clones was measured using a ProteOn XPR36 instrument (Biorad) at 25° C. with biotinylated hu(NA1)BA-avi-His immobilized on NLC chips by neutravidin capture. CEACAM1-avi-his was used as a negative control. Immobilization of recombinant antigens (ligand): Antigens were diluted with PBST (10 mM phosphate, 150 mM sodium chloride pH 7.4, 0.005% Tween 20) to 10 μg/ml, then injected at 30 μl/minute at varying contact times, to achieve immobilization levels of 400, 800 or 1600 response units (RU) in vertical orientation. Injection of analytes: Injection direction was changed to horizontal orientation and 5 individual aVH-containing supernatants that were diluted 1:3 with PBST were injected simultaneously at 60 μl/min along separate channels 1-5, with association times between 120 and 180s, and dissociation times of 800s. Diluted bacterial supernatant without aVH was injected along the sixth channel to provide an “in-line” blank for referencing. Dissociation rate constants (koff) were calculated using the “koff-rate” calculation in ProteOn Manager v3.1 software.

[5] = biological target: T3, full-length human CEA with N-terminal …; test: FRET (TagLite) on hu CEA-SNAP cells
Method: Binding of a selected set of purified aVH binders to their epitope on CEA-expressing cells was determined by Fluorescence Resonance Energy Transfer (FRET) analysis. For this analysis, the DNA sequence encoding for the SNAP Tag (plasmid purchased from Cisbio) was amplified by PCR and ligated into an expression vector, containing the full length human CEA sequence. The resulting fusion protein was comprised of full-length CEA with an N-terminal SNAP tag. HEK293 cells were transfected with 10 μg DNA using Lipofectamine 2000 as transfection reagent. After an incubation time of 20 h, cells were washed with PBS and incubated for 1 h at 37° C. in LabMed buffer (Cisbio) containing 100 nM SNAP-Lumi4Tb (Cibsio), leading to specific labeling of the SNAP Tag. Subsequently, cells were washed 4 times with LabMed buffer to remove unbound dye. […] Cells were then stored frozen at −80° C. for up to 6 months. Binding was measured by adding CEA-specific aVH binders at a concentration ranging from 0.005 up to 100 nM to labeled cells (100 cells per well) followed by addition of d2-labeled anti-his tag antibody (Cisbio, final concentration was 200 nM per well) as acceptor molecule for the FRET. […] The ratio of acceptor to donor emission was calculated and the ratio of the background control (cells only incubated with anti-his tag antibody) subtracted. Curves were analysed in GraphPad Prism5 (FIG. 9) and KDs calculated (Table 26).

[6] = biological target: T4, soluble human Lag3-IgG1-Fc with …; test: ELISA, supernatant on biotinylated antigen
[7] = biological target: T5, human FAP avi his, biotinylated (human, UniProt Q12884 27-759, biotin on the avi-tag); test: SPR, bacterial supernatant;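 further: SPR at 25 °C with biotinylated human or murine FAP captured via neutravidin, aVH-containing bacterial supernatants diluted 1:3 as analyte, 600 s dissociation, blank supernatant without aVH as reference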
T5 construct: also called huFAP
Method: (§1) Clones that were identified in the “mix-and-read assay” performed with the Mirrorball instrument were further analyzed by Surface Plasmon Resonance (SPR). The off-rate of selected aVH clones was measured using a ProteOn XPR36 instrument (Biorad) at 25° C. with biotinylated human and murine FAP antigen immobilized on NLC chips by neutravidin capture. Immobilization of recombinant antigens (ligand): Antigens were diluted with PBST (10 mM phosphate, 150 mM sodium chloride pH 7.4, 0.005% Tween 20) to 10 μg/ml, then injected at 30 μl/minute at varying contact times, to achieve immobilization levels of 400, 800 or 1600 response units (RU) in vertical orientation. Injection of analytes: Injection direction was changed to horizontal orientation and 5 individual aVH-containing supernatants that were diluted 1:3 with PBST were injected simultaneously at 60 μl/min along separate channels 1-5, with association times between 120 and 180s, and dissociation times of 600s. Diluted bacterial supernatant without aVH was injected along the sixth channel to provide an “in-line” blank for referencing. Dissociation rate constants (koff) were calculated using the “koff-rate” calculation in ProteOn Manager v3.1 software.

[8] = biological target: T6, murine FAP avi his, biotinylated (murine, UniProt P97321 27-761, biotin on the avi-tag); test: SPR, bacterial supernatant;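 further: SPR at 25 °C with biotinylated human or murine FAP captured via neutravidin, aVH-containing bacterial supernatants diluted 1:3 as analyte, 600 s dissociation, blank supernatant without aVH as reference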
T6 construct: also called muFAP; mu FAP
Method: as §1

T4 sequence (chain, as listed by the source limits assumed): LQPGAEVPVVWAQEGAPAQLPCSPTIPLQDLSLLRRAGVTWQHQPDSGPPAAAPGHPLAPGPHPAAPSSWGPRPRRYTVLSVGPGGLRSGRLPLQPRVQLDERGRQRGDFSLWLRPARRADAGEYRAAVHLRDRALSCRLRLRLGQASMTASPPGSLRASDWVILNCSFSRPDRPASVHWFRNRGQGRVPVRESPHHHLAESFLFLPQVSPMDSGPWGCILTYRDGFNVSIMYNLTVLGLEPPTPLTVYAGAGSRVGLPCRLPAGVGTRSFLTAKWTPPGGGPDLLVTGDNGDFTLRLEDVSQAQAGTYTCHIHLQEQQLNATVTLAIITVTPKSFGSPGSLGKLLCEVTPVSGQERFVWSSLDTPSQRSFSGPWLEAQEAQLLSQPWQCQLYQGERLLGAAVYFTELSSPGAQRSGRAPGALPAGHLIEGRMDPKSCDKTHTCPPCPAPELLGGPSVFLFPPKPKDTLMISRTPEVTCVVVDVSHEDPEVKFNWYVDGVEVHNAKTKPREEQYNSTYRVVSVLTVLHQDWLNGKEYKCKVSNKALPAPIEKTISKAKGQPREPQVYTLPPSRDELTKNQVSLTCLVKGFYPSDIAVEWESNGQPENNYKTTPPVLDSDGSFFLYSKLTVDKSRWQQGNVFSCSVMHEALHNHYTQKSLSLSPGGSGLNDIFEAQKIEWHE

Binder | Kd [3] | koff [4] | Kd [5] | also measured
LAG3 P11A2 aVH (VHH) VHH: EVQLVESGGGLVQPGGSLRLSCAASSFNIKDTYIGWVRRAPGKGTELVAEIACHEGTTRYADSVKGRFTISCDTSKNTAYLQMNSLRAEDTAVYYCANTEYDDIFDYWGQGTTVTVSS |  |  |  | Kd [1]: 55 nM; koff [1]: 0.0138 s⁻¹; kon [1]: 251000 M⁻¹ s⁻¹
anti-MCSP aVH clone 44 (VHH) VHH: EVQLVESGGGLVQPGGSLRLSCAASGFNIKDGYIDWVRRAPGKGTELVASIECTNGRATRYADSVKGRFTISCDTSKNTAYLQMNSLRAEDTAVYYCAYAGIGYYFYYWGQGTTVTVSS |  |  |  | Kd [2]: 109 nM; koff [2]: 0.0163 s⁻¹; kon [2]: 150000 M⁻¹ s⁻¹
anti-CEA aVH P118.089 (VHH) VHH: EVQLVESGGGLVQPGGSLRLSCAASGFNIKDTCIGWVRRAPGKEEELVASICQYSGYTRYADSVKGRFTISADTSKNTAYLQMNSLRAEDTAVYYCAITSHHGDYNYWGQGTTVTVSS | 37.9 nM | 0.0599 s⁻¹ | 16.8 nM | 
anti-MCSP aVH clone 2 (VHH) VHH: EVQLVESGGGLVQPGGSLRLSCAASSFNIKDTYIGWVRRAPGKGTELVASIDCIYGYTRYADSVKGRFTISCDTSKNTAYLQMNSLRAEDTAVYYCAAQGYRLHYWGQGTTVTVSS |  |  |  | Kd [2]: 8 nM; koff [2]: 0.00339 s⁻¹; kon [2]: 458000 M⁻¹ s⁻¹
LAG3 P10D1 aVH (VHH, also called P110D1) VHH: EVQLVESGGGLVQPGGSLRLSCAASGFSIKDTCIAWVRRAPGKGTELVAEICEDIGYTRYADSVKGRFTISADTSKNTAYLQMNSLRAEDTAVYYCAAKEAGVGFDYWGQGTTVTVSS |  |  |  | Kd [1]: 27 nM; koff [1]: 0.00383 s⁻¹; kon [1]: 144000 M⁻¹ s⁻¹
LAG3 9B4 aVH (VHH) VHH: EVQLVESGGGLVQPGGSLRLSCAASGFNIKDTCIGWVRRAPGKGTELVAEICQDIGYTRYADSVKGRFTISADTSKNTAYLQMNSLRAEDTAVYYCAAVEVAEYFEYWGQGTTVTVSS |  |  |  | Kd [1]: 86 nM; koff [1]: 0.00314 s⁻¹; kon [1]: 36500 M⁻¹ s⁻¹
SEQ ID NO 77 (VHH, also called LAG3-specific aVH) VHH: EVQLVESGGGLVQPGGSLRLSCAASGFNIKDTCIGWVRRAPGKGTELVAEICTDIGYTRYADSVKGRFTISADTSKNTAYLQMNSLRAEDTAVYYCAAGEGSSGFHYWGQGTTVTVSS |  |  |  | binding result [6]: binds
SEQ ID NO 79 (VHH, also called LAG3-specific aVH) VHH: EVQLVESGGGLVQPGGSLRLSCAASGFNIKDTCIGWVRRAPGKGTELVAEICQDIGYTRYADSVKGRFTISADTSKNTAYLQMNSLRAEDTAVYYCAADESVDNFKYWGQGTTVTVSS |  |  |  | binding result [6]: binds
anti-MCSP aVH clone 57.1 (VHH) VHH: EVQLVESGGGLVQPGGSLRLSCAASGFNIKQNCIEWVRRAPGKGTELVANICHDIGSTRYADSVKGRFTISADTSKNTAYLQMNSLRAEDTAVYYCAAWEQKGFNYWGQGTTVTVSS |  |  |  | Kd [2]: 48 nM; koff [2]: 0.0142 s⁻¹; kon [2]: 295000 M⁻¹ s⁻¹
anti-CEA aVH P112.083 (VHH) VHH: EVQLVESGGGLVQPGGSLRLSCAASGFNIKDTCIGWVRRAPGKEEELVADICPYKGSTRYADSVKGRFTISADTSKNTAYLQMNSLRAEDTAVYYCAIVSARDGYYNYWGQGTTVTVSS | 7.26 nM | 0.00034 s⁻¹ | 10.4 nM | 
anti-CEA aVH P118.008 (VHH) VHH: EVQLVESGGGLVQPGGSLRLSCAASGFNIKDTCIGWVRRAPGKEEELVAYICNYTGYTRYADSVKGRFTISADTSKNTAYLQMNSLRAEDTAVYYCAITSYHGQGYNYWGQGTTVTVSS | 96.2 nM | 0.0305 s⁻¹ | 28.6 nM | 
anti-CEA aVH P124.067 (VHH) VHH: EVQLVESGGGLVQPGGSLRLSCAASGFNIKDTCIGWVRRAPGKEEELVAAICEYKGYTRYADSVKGRFTISADTSKNTAYLQMNSLRAEDTAVYYCAIASPVDQYYNYWGQGTTVTVSS | 296 nM | 0.00704 s⁻¹ | 74.3 nM | 
anti-CEA aVH P127.141 (VHH) VHH: EVQLVESGGGLVQPGGSLRLSCAASGFNIKDTCIGWVRRAPGKEEELVAGICEYTGSTRYADSVKGRFTISADTSKNTAYLQMNSLRAEDTAVYYCAIVSQSRSVYNYWGQGTTVTVSS | 135 nM | 0.0317 s⁻¹ | 28.3 nM | 
anti-CEA aVH P124.037 (VHH) VHH: EVQLVESGGGLVQPGGSLRLSCAASGFNIKDTCIGWVRRAPGKEEELVAQICQYHGSTRYADSVKGRFTISADTSKNTAYLQMNSLRAEDTAVYYCAIVGQNYPVYNYWGQGTTVTVSS | 15.2 nM | 0.0395 s⁻¹ | 11.1 nM | 
anti-CEA aVH P112.068 (VHH) VHH: EVQLVESGGGLVQPGGSLRLSCAASGFNIKDTCIGWVRRAPGKEEELVAKICKYSGHTRYADSVKGRFTISADTSKNTAYLQMNSLRAEDTAVYYCAAVSVRDGHYNYWGQGTTVTVSS | 16.2 nM | 0.0016 s⁻¹ | 14.6 nM | 
anti-CEA aVH P118.093 (VHH) VHH: EVQLVESGGGLVQPGGSLRLSCAASGFNIKDTCIGWVRRAPGKEEELVADICPSYGGTRYADSVKGRFTISADTSKNTAYLQMNSLRAEDTAVYYCAIVSKIDQYYNYWGQGTTVTVSS | 102 nM | 0.033 s⁻¹ | 47.3 nM | 
anti-FAP aVH P053.020 (VHH) VHH: EVQLVESGGGLVQPGGSLRLSCAASGFNIKDTCIGWVRRAPGKEEELVARICGQIGSTRYADSVKGRFTISADTSKNTAYLQMNSLRAEDTAVYYCATSYTVYRSYDYWGQGTTVTVSS |  |  |  | koff [7]: 0.0125 s⁻¹; koff [8]: 0.0294 s⁻¹
anti-FAP aVH P054.064 (VHH) VHH: EVQLVESGGGLVQPGGSLRLSCAASGFNIKDTCIGWVRRAPGKEEELVANICGSNGYTRYADSVKGRFTISADTSKNTAYLQMNSLRAEDTAVYYCASSYTVYRGYDYWGQGTTVTVSS |  |  |  | koff [7]: 0.0161 s⁻¹; koff [8]: 0.0312 s⁻¹
anti-CEA aVH P123.065 (VHH) VHH: EVQLVESGGGLVQPGGSLRLSCAASGFNIKDSSTYIGWVRRAPGKEEELVASISCSRGNTRYADSVKGRFTISCDTSKNTAYLQMNSLRAEDTAVYYCAHPRYTWYDYWGQGTTVTVSS | 89.1 nM | 0.0278 s⁻¹ | 190 nM | 
